Measurements reported in IntAct's records for PubMed 21804557.

B1: Indoleamine 2,3-dioxygenase 1 (Mus musculus), P28776 (parent)
chain: MALSKISPTEGSRRILEDHHIDEDVGFALPHPLVELPDAYSPWVLVARNLPVLIENGQLREEVEKLPTLSTDGLRGHRLQRLAHLALGYITMAYVWNRGDDDVRKVLPRNIAVPYCELSEKLGLPPILSYADCVLANWKKKDPNGPMTYENMDILFSFPGGDCDKGFFLVSLLVEIAASPAIKAIPTVSSAVERQDLKALEKALHDIATSLEKAKEIFKRMRDFVDPDTFFHVLRIYLSGWKCSSKLPEGLLYEGVWDTPKMFSGGSAGQSSIFQSLDVLLGIKHEAGKESPAEFLQEMREYMPPAHRNFLFFLESAPPVREFVISRHNEDLTKAYNECVNGLVSVRKFHLAIVDTYIMKPSKKKPTDGDKSEEPSNVESRGTGGTNPMTFLRSVKDTTEKALLSWP

Variants of: B1
Settings: with ptn6_mouse Ptpn6, P29351
Sequence of ptn6_mouse Ptpn6, P29351 (P29351 whole entry): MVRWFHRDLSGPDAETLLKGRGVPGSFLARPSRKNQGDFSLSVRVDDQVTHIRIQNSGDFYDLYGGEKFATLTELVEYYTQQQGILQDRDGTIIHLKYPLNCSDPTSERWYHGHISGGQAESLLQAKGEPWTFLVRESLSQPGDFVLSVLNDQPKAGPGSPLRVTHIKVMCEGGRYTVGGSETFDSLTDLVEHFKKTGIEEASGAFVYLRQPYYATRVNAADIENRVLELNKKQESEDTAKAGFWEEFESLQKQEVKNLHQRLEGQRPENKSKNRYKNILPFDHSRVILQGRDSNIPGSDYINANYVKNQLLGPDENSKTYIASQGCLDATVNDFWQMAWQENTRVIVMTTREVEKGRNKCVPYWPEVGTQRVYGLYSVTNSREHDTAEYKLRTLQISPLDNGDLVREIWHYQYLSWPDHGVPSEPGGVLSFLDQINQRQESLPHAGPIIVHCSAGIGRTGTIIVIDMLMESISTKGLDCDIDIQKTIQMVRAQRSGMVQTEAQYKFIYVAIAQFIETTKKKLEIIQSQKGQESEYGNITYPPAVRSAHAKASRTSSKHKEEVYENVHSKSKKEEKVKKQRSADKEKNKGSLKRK

Variant | effect of a mutation on the interaction
Y115F;Y253F | decreasing interaction
